From US12077763B2, “RNA-based control of powdery mildew” (Greenlight Biosciences, Inc., priority 2021, dated 2024)

B1: GS3336: sprayed dsRNA for which activity had been shown by leaf assay; presumably listed in Table 1B (nucleic acid)
sense: AAUGAUGUAAGCUCCAUGGGAAUUCAUAACCUGAGUGAGCAUCAAUAGCUUGGAAUAGUCGACAGAUAAUCCAACAAUACAUCGUAACUAAGUGAAGAUUGCCAGUUAUCAGACACCAUACAGUUGGCAUUAAGACUGUUCCUGCGCCAAGAACCAUUGUUUCUAUUGGUGAAGCAUAUUCAGCUGCUAGUCCGAAGGGUGCAGAGUAAUGAUGAUGUAUUUUAUGAAUAUGUUUGUAGAAAGGACCCCAAUGAAAUAAUCGAUGCAUCCAAUAAUGCCACGUAUCUUCCAACACGAAAAAGAAAGCAAUCUGAAGACACAUAGUUUUUAAUGAUGGAAAUGGGACACCAACAUCCAUACCACAAGCCUUUGUCAAUGGAUGAAAAAGCCAAAUUUGA
antisense: UCAAAUUUGGCUUUUUCAUCCAUUGACAAAGGCUUGUGGUAUGGAUGUUGGUGUCCCAUUUCCAUCAUUAAAAACUAUGUGUCUUCAGAUUGCUUUCUUUUUCGUGUUGGAAGAUACGUGGCAUUAUUGGAUGCAUCGAUUAUUUCAUUGGGGUCCUUUCUACAAACAUAUUCAUAAAAUACAUCAUCAUUACUCUGCACCCUUCGGACUAGCAGCUGAAUAUGCUUCACCAAUAGAAACAAUGGUUCUUGGCGCAGGAACAGUCUUAAUGCCAACUGUAUGGUGUCUGAUAACUGGCAAUCUUCACUUAGUUACGAUGUAUUGUUGGAUUAUCUGUCGACUAUUCCAAGCUAUUGAUGCUCACUCAGGUUAUGAAUUCCCAUGGAGCUUACAUCAUU
B2: GS2674 (nucleic acid)
sense: UUGAGAAAUUAUUUUCUCUUAUAGCGAAUUUGAUUGAGUAUUUUAUGUGAUAUUCACGUUGUUGGACCCUUAUAGAUCUGGGAUUUAGGGUCUUAGAAGACUCGUCUUAAAGCUUGCCCCAACGUAUGAAGUAUUAAAUACGUUACUUUUGAUAUGAAUAUAUUUUUUAUAUACACGAAUUAAUUUAAUCGAAGAGACCAAAGCCCAUAUCUUCAUCAGACUCUUCUUCUUUUUCUUCUU
antisense: AAGAAGAAAAAGAAGAAGAGUCUGAUGAAGAUAUGGGCUUUGGUCUCUUCGAUUAAAUUAAUUCGUGUAUAUAAAAAAUAUAUUCAUAUCAAAAGUAACGUAUUUAAUACUUCAUACGUUGGGGCAAGCUUUAAGACGAGUCUUCUAAGACCCUAAAUCCCAGAUCUAUAAGGGUCCAACAACGUGAAUAUCACAUAAAAUACUCAAUCAAAUUCGCUAUAAGAGAAAAUAAUUUCUCAA
B3: GS1885: dsRNA trigger SEQ ID NO 213; gene target ribosomal processing RNA binding nucleolar protein (nucleic acid)
chain: TACGGATCGATAGACGGGTGAGTGAAAGATGAAGTGCAGGATTTTTCTCTATAAGTTTCTTACGTTGTAGCGCCGAAGCTTCTCTAAGTTTAATCTCTGATGGAGATAAAACGTTATATATAGGCGTACCAACAGCAATTGTCCCCTCTTTAAGTAGATATAACTTTCGCTTATCTTTGTCTCGGTCAGTGCGGAAGTTTGTCCCAGCTTCTGTAAGTTTTACAGCTTTTTCTCGATTAACTGCTCTTGACACTTGAAGTACGCGACCTTCTATTGTGTATAAGCCATTCTTATCAGCAGTTTCATCCTCTAAAATAGAGTTTTTAGCTTTAACAGCGTTTGCACCACTTTTGAAGGTACGAGGTGCACCATGGTAACAAGAGTCCGCATCTTCTTGTCTATAGAAGCAAACAAAGCCAGTGCCTTTAGGTCGACCAGTATTATTGTCTATGACCA
B4: ES48: dsRNA trigger SEQ ID NO 111; gene target Hypotethical effector (nucleic acid)
DNA: AGTAGCAGCGGACATCGCCGACGGCCCTACACTGTCAGGGCTACCTGGGGTTGCAGATTTCGACTTGTCTTCAGCGTCCTCCCCAAGTCTCGAGAAAAGACTTTGTTTTAGACGAGGATGCAATAAAAAATCTAAACACGCATCAGGCTTCCAATGTAAGAAGAAACATTTCAGTCTGGCGGCGGTAGAAAAAGCAAAAGCCGTAGCCTGCGCAAAGATCAAAGAAAACAAGCAGCGCAATGCCTTTCCTGCTCTTTACACCGCAACCGATTTCGAAACTCCCGGGCCTTATCTAGAATGGCCAATCAAGCGCAATGGAAGATTTTGGAATAATTTGAGAAGAGGCCGTTACCGCATCATCCTAACCGAAAACTGCAAAGTTGTCGGTGCTGTGATCCGGAAAAGCAATGGTTCATACCGCACATGCAAGAAACTGAGCGAAAAAGATGAAGATGAAGTTGATGATGATGATGAAAAAGAA
B5: GS1879: dsRNA trigger SEQ ID NO 142; gene target Chaperone-dependent E3 ubiquitin protein ligase (nucleic acid)
chain: CTGAATTTCTGAGTTCCGCTATCTTTTTATCTCTTCTTTCCTCAAGTCCGTATTGAAGTTCGTGAGATAATTTACTTCGATTCATCTCTCTTTTACTTTCTTGTGCCTCCCATCCCATTTTTTTACATTTCATCACTAACTCAGTTATTGGCTCTATACTGTTAGCCCCTTTTGTTCCTGCATACATCTCTTCCATACAAAATTTTCGCGCAGTCTTTGCAGATTGAAATGCCTCATCGTAATAATTTAGCGCCAGTTGTGCTTGGGCCAGTTGGAAATATGCTTTCATATTTGATGGGAGGAGACGTAAAGCGCATTGGGCATCTTCAATTACACGATGATGAAGAGATAATTTAAGAAGTACCATTGCACGATTTGTATAAAGTACTGGATTTTGGGGATCACAATTGATCGCTTTTGTGTAAAACATTTCAGCACGCGTATAATCACCAGACTTAAAATATTTATTTC
B6: GS2679 (nucleic acid)
sense: CCGCCAUACUGGGGGAUUAGAACCUUGUCGCCAACCUUGACAUUACAAGACACUCUGUUUCCAUCUUUGCCAACUGCACCAGGUCCUACAGCUAUAACGUGGGCUUCAUUGAGUUCCUUGACACUUUUUUCGGGAAGAAAAAUGCCACUCGCAGUCUUUGCUUCUGCCUUCACUCGUUGUACAAGAACCCGGUCAAGUAAAGGAGCAAGGGACUUGAUUGAUUUGAGUGUUGAAGCCAUGUUAGAGGAUAACGGACAGUGAAUUAUAAAGACUGUGCAAUAAAAUUGGUUUAAGAGAAAAGAUCUUUGAAGUCGCGUUACGUUAAAGUCGCUAUCUGUU
antisense: AACAGAUAGCGACUUUAACGUAACGCGACUUCAAAGAUCUUUUCUCUUAAACCAAUUUUAUUGCACAGUCUUUAUAAUUCACUGUCCGUUAUCCUCUAACAUGGCUUCAACACUCAAAUCAAUCAAGUCCCUUGCUCCUUUACUUGACCGGGUUCUUGUACAACGAGUGAAGGCAGAAGCAAAGACUGCGAGUGGCAUUUUUCUUCCCGAAAAAAGUGUCAAGGAACUCAAUGAAGCCCACGUUAUAGCUGUAGGACCUGGUGCAGUUGGCAAAGAUGGAAACAGAGUGUCUUGUAAUGUCAAGGUUGGCGACAAGGUUCUAAUCCCCCAGUAUGGCGG
B7: GS1875: dsRNA trigger SEQ ID NO 168; gene target Mitochondrial RNA-splicing protein MRS3 (nucleic acid)
chain: AAAGCTCCAGCTGAGCAATGAGTAAGTGGATCGTAAGCCTTTGATGGGTTCAGAAATGTAGATACAGATTCGTATGCGAGAAGTTGAAGTGCTGTAAATGGTACAGTCATGGAAAGAGTAGTTGGATACGAGATATAGAAGGCTGTGATGCCTTCAGTGCGATAGATATAGCGGGCACAATCACTCAGTGATCTATAAATTTTGCGAGAGTTATGCATTTGCATTCTTTGCTTTATTACATCAAATGGGTTCATTAAAGCATCACTTGCAATTGTTGCGCATGCCCCACTTGTAATGCGCATGCCCCACTTGTAACTATGTAGCTTCAGTAAGTGCTCAATATCAAGGATAAATTGGCGATGTAGTCATATATGTCTGATTCCTTAATCAAAATTCTTAATACAGACCTGCTGCAATAGGATGATGAGCTCCTGTTTGATTACCTCCCATGAGATGTTTGACAGCTTCATAGGTTGCAAAATA

What was measured:
[1] = tested on: GS1885, GS3336, GS1875, GS1879 transcripts; assay: Gene specific qRT-PCR of GS1885, GS3336, GS1875, GS1879 transcripts in leaf discs (Example 3); format: in vivo, E. necator; conditions: six-days post inoculation, FIG. 4
Protocol: FIG. 4. Gene specific qRT-PCR analysis of GS1885, GS3336, GS1875, GS1879 transcripts at 6-dpi in leaf discs. The 2-ΔΔCT method was used to analyze the relative changes in gene expression. Gene expression was normalized to the untreated control. GS145 (a non-target dsRNA sequence) was also included as control. Asterisks denote significant differences compared to untreated control (UTC). Statistical comparisons between treatments were performed with ANOVA, followed by Welch's analysis.
qRT-PCR was performed to validate the effect of exogenous dsRNA on the expression of selected targeted genes for which activity of dsRNA had been shown by leaf assay (as described in Example 2). Samples were treated with dsRNA, inoculated after 24 hours and six leaf discs per treatment were collected at six-days post inoculation (dpi) for further analysis.

E. necator = assay: Leaf disc assay, dry inoculum (settling tower), decrease in disease severity / hyphal growth (Example 2); conditions: decrease in disease severity (hyphal growth) relative to untreated control, value ± SE; for % decrease =/− SE TP1: time point 1 (untreated control hyphal growth ≥50%); for % decrease =/− SE TP2: time point 2

Molecule	gene silencing in E. necator by sprayed dsRNA / gene expression levels vs untreated control [1]	% decrease =/− SE TP1 (E. necator) [%]	% decrease =/− SE TP2 (E. necator) [%]
B1	Induced Gene Silencing	72 ± 2	57 ± 4
B2		17 ± 4	5 ± 6
B3	Induced Gene Silencing	67 ± 4	58 ± 5
B4		15 ± 6	1 ± 3
B5	Induced Gene Silencing	49 ± 5	41 ± 7
B6		25 ± 3	24 ± 5
B7	Induced Gene Silencing	55 ± 4	41 ± 5
